# B1: 41-mer AAVS1 RBS DNA (dsDNA)
# DNA 1: TGGCGGCGGTTGGGGCTCGGCGCTCGCTCGCTCGCTGGGCG
# DNA 2: CGCCCAGCGAGCGAGCGAGCGCCGAGCCCCAACCGCCGCCA
# Molecular target: Rep68 wt (Adeno-associated virus 2 (AAV2), UniProt P03132 1-536)
# Assay: fluorescence anisotropy
# Sequence of Rep68 wt (P03132 whole entry): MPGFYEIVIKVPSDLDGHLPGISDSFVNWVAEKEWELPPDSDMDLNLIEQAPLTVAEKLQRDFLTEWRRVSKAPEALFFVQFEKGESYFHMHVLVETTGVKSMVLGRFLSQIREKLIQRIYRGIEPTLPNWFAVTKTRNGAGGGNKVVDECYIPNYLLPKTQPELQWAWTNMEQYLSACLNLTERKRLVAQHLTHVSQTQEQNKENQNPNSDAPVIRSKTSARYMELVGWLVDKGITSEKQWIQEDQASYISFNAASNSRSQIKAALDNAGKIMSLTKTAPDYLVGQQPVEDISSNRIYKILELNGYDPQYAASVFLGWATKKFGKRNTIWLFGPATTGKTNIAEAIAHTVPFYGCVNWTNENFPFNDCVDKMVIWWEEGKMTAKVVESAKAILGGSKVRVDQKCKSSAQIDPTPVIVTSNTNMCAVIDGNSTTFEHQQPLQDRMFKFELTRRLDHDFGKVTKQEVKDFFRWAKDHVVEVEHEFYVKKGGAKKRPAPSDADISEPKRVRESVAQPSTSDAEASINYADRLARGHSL
binder,measurement,value
B1,binding result,binds

# Reference: PMC4636433
